B1: human BLVRB (biliverdin reductase B) (Homo sapiens; S111A) (protein)
chain: MAVKKIAIFGATGQTGLTTLAQAVQAGYEVTVLVRDSSRLPSEGPRPAHVVVGDVLQAADVDKTVAGQDAVIVLLGTRNDLSPTTVMSEGARNIVAAMKAHGVDKVVACTAAFLLWDPTKVPPRLQAVTDDHIRMHKVLRESGLKYVAVMPPHIGDQPLTGAYTVTLDGRGPSRVISKHDLGHFMLRCLTTDEYDGHSTYPSHQYQ
notes: full length, 206 residues; codon-optimised, pET21b (T164S in pJ401k); N-terminal 6xHis tag removed with thrombin
B2: human BLVRB (biliverdin reductase B) (Homo sapiens; T164A) (protein)
chain: MAVKKIAIFGATGQTGLTTLAQAVQAGYEVTVLVRDSSRLPSEGPRPAHVVVGDVLQAADVDKTVAGQDAVIVLLGTRNDLSPTTVMSEGARNIVAAMKAHGVDKVVACTSAFLLWDPTKVPPRLQAVTDDHIRMHKVLRESGLKYVAVMPPHIGDQPLTGAYAVTLDGRGPSRVISKHDLGHFMLRCLTTDEYDGHSTYPSHQYQ
notes: as for B1
B3: human BLVRB (biliverdin reductase B) (Homo sapiens; T164S) (protein)
chain: MAVKKIAIFGATGQTGLTTLAQAVQAGYEVTVLVRDSSRLPSEGPRPAHVVVGDVLQAADVDKTVAGQDAVIVLLGTRNDLSPTTVMSEGARNIVAAMKAHGVDKVVACTSAFLLWDPTKVPPRLQAVTDDHIRMHKVLRESGLKYVAVMPPHIGDQPLTGAYSVTLDGRGPSRVISKHDLGHFMLRCLTTDEYDGHSTYPSHQYQ
notes: as for B1
B4: human BLVRB (biliverdin reductase B) (Homo sapiens; T164I) (protein)
chain: MAVKKIAIFGATGQTGLTTLAQAVQAGYEVTVLVRDSSRLPSEGPRPAHVVVGDVLQAADVDKTVAGQDAVIVLLGTRNDLSPTTVMSEGARNIVAAMKAHGVDKVVACTSAFLLWDPTKVPPRLQAVTDDHIRMHKVLRESGLKYVAVMPPHIGDQPLTGAYIVTLDGRGPSRVISKHDLGHFMLRCLTTDEYDGHSTYPSHQYQ
notes: as for B1
B5: human BLVRB (biliverdin reductase B) (Homo sapiens; H153A) (protein)
chain: MAVKKIAIFGATGQTGLTTLAQAVQAGYEVTVLVRDSSRLPSEGPRPAHVVVGDVLQAADVDKTVAGQDAVIVLLGTRNDLSPTTVMSEGARNIVAAMKAHGVDKVVACTSAFLLWDPTKVPPRLQAVTDDHIRMHKVLRESGLKYVAVMPPAIGDQPLTGAYTVTLDGRGPSRVISKHDLGHFMLRCLTTDEYDGHSTYPSHQYQ
notes: as for B1

substrate: Cc1cc2nc3c(=O)[nH]c(=O)nc-3n(C[C@H](O)[C@H](O)[C@H](O)COP(=O)(O)OP(=O)(O)OC[C@H]3O[C@@H](n4cnc5c(N)ncnc54)[C@H](O)[C@@H]3O)c2cc1C; assay: purified protein; type: biochemical, Homo sapiens; conditions: co-substrate NADPH

Point of comparison: B5, Km 98 ± 11 µM. Against it:
- B1 — 3.3-fold higher, 325 ± 96 µM
- B2 — 1.6-fold higher, 153 ± 18 µM
- B3 — within 1.5-fold, 127 ± 15 µM
- B4 — 1.6-fold higher, 156 ± 18 µM

Point of comparison: B1, kcat 0.021 ± 0.004 s⁻¹. Against it:
- B2 — 3-fold higher, 0.063 ± 0.002 s⁻¹
- B3 — 1.9-fold higher, 0.039 ± 0.003 s⁻¹
- B4 — 2.3-fold higher, 0.049 ± 0.003 s⁻¹
- B5 — 2.8-fold higher, 0.059 ± 0.003 s⁻¹

From PMC8173106, “Modulating Enzyme Function via Dynamic Allostery within Biliverdin Reductase B” (Frontiers in Molecular Biosciences, 2021)
